Experimental data as given in patent US20240352121A1 (published 2024).

T1: LAIR-1 (human; form used for the KD not stated) (UniProt Q6GTX8 22-165)
T1 chain: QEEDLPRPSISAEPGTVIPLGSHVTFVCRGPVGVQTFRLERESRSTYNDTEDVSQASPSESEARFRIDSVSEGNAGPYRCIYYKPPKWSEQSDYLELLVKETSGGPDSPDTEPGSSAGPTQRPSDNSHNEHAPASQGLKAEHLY


Tests used:
[1] = target: human LAIR-1 fused to the zeta chain of CD3, on UT-140 reporter cells (UniProt P20963 31-164); experiment: cell binding (flow cytometry)
[2] = target: T1, LAIR-1 (human; form used for the KD not …); experiment: kinetic binding; replicate 1
[3] = target: T1, LAIR-1 (human; form used for the KD not …); experiment: kinetic binding; replicate 3
[4] = target: T1, LAIR-1 (human; form used for the KD not …); experiment: kinetic binding; replicate 2

| EC50 [1] [nM] | Kd [2] [nM] | Kd [3] [nM] | Kd [4] [nM] | Binder |
| --- | --- | --- | --- | --- |
| 0.15 | – | – | – | hLAIR-1 mAb-Parent (antibody, V domains shown) VH: EVQLVESGGGLVQPKGSLKLSCAASGFTFNTNAMYWVRQAPGKGLEWVARIRSKSSNYATYYADSVKDRFTISRDDSQSMLYLQMNNLKTEDTARYYCVRGGSGFFAYWGQGTLVTVSA VL: DIQMAQSSSSFSVSLGDRVTITCKASEDIYIRLAWYQQKPGNAPRLLISTATSLETGVPSRFSGSGSGKDYTLSITSLQTEDVATYYCQQYWSTPYTFGGGTRLEIK |
| – | 2.38 | 2.34 | – | h11B3 LAIR-1 mAb, Anti-LAIR-1 Variant 6 (h11B3 VL-2 / h11B3 VH-3) (antibody, V domains shown) VH: EVQLVESGGGLVQPGGSLKLSCAASGFTFNTNAMYWVRQAPGKGLEWVGRIRSKSSNYATYYAASVKGRFTISRDDSKNTLYLQMNSLKTEDTAVYYCVRGGSGFFAYWGQGTLVTVSS VL: DIQMTQSPSSLSASLGDRVTITCKASEDIYIRLAWYQQKPGKAPRLLISTATSLETGVPSRFSGSGSGTDYTFTISSLQPEDIATYYCQQYWSTPYTFGGGTRLEIK |
| – | 1.25 | 1.95 | 1.16 | 11B3 hG1 (antibody, V domains shown) VH: EVQLVESGGGLVQPKGSLKLSCAASGFTFNTNAMYWVRQAPGKGLEWVARIRSKSSNYATYYADSVKDRFTISRDDSQSMLYLQMNNLKTEDTARYYCVRGGSGFFAYWGQGTLVTVSA VL: DIQMAQSSSSFSVSLGDRVTITCKASEDIYIRLAWYQQKPGNAPRLLISTATSLETGVPSRFSGSGSGKDYTLSITSLQTEDVATYYCQQYWSTPYTFGGGTRLEIKR |
